This note sets out measurements from patent US20220363761A1 (MERUS N V, published 2022).

For assay [1], the target named is T1, human PD-1 (expressed on cells) (human, UniProt Q15116 25-288). The experiment in a line: cell-based or functional assay.
Assay [2] concerns the target T1, human PD-1 (expressed on cells). In words: cell-based or functional assay. The source holds these as a separate data set.
Assay [3] concerns the target T2, human LAG-3 (expressed on 293FF cells) (human, UniProt P18627 23-525).
T2 construct: whole, on cells; also called CD223
T2 sequence (looked up): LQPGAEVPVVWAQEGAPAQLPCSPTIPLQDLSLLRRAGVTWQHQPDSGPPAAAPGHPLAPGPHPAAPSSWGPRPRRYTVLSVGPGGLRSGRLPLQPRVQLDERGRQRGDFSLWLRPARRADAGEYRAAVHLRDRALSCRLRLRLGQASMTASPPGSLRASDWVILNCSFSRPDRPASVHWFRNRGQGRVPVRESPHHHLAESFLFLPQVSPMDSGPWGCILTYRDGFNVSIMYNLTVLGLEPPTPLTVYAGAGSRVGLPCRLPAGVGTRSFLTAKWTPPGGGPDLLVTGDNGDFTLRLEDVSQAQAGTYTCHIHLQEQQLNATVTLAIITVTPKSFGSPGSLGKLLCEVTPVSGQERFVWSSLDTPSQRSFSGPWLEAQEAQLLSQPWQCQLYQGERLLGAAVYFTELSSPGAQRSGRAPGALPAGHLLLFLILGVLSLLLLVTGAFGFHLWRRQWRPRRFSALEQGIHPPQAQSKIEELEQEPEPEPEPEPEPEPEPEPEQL
The experiment in a line: FACS on 293FF cells stably transfected with human LAG-3. As for the experimental part: (§1) The binding of bispecific antibodies was analyzed by FACS using cell lines stably transfected with human LAG-3 or rhesus LAG-3, or transiently transfected with human PD-1 or cynomolgus PD-1. […] IgG specific binding was measured by FACS using a 8-step, 5-fold dilution starting at 50 ug/ml. A goat-anti-human PE was used as secondary detection antibody. Cells w/o staining or only secondary detection antibody were included as negative assay controls.

Assay [4] has as its target cynomolgus PD-1 (expressed on 293FF cells) (cynomolgus, UniProt B0LAJ3 25-288). In words: FACS on 293FF cells transiently transfected with cynomolgus PD-1. On the procedure: as §1
Assay [5] concerns the target T1, human PD-1 (expressed on cells). In words: cell-based or functional assay. This is another data set of the same source.
For assay [6] the target is unchanged. The experiment in a line: cell-based or functional assay. This is another data set of the same source.

Like-named read-outs stand apart in the source and are kept apart here.

cynomolgus PD-1 (expressed on 293FF cells), sequence (B0LAJ3 entry or part of it limits assumed): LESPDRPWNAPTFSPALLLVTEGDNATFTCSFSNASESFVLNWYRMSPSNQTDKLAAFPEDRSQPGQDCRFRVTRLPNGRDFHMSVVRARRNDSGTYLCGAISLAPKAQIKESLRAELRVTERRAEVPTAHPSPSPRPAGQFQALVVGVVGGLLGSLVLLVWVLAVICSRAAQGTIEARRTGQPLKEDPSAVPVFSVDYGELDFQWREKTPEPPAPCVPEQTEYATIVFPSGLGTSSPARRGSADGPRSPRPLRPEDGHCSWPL
T1 sequence (Q15116 25-288): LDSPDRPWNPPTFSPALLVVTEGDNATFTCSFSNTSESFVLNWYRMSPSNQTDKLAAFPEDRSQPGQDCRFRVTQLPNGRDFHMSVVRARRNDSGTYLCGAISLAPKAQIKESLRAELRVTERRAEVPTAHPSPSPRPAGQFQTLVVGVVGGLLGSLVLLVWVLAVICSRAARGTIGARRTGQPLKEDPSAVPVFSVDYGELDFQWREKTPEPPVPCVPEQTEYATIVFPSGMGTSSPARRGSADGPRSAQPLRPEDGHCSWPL

B1: PD-1xLAG-3 bispecific antibody SEQ ID NO: 1 × SEQ ID NO: 11 (bispecific antibody)
heavy (part 1 of 2) 1: not shown
heavy (part 2 of 2) 1: not shown
heavy (part 1 of 2) 2: QVQLQESGPGLVRPSETLSLTCTVSGGSISSYSWSWIRQPPGKGLEWIGYIDYSGSTNYNPSLKSRVTISVDTSKTQFSLKLSSVSAADTAVYYCAKDLLYKWNYVEGFDIWGQGTTVTVSSASTKGPSVFPLAPSSKSTSGGTAALGCLVKDYFPEPVTVSWNSGALTSGVHTFPAVLQSSGLYSLSSVVTVPSSSLGTQTYICNVNHKPSNTKVDKRV
heavy (part 2 of 2) 2: not shown
light: not shown
notes: IgG1; common light chain; also called PB1; not shown: hinge (IgG1)
On to B1, for which, in assay [1], the “AUC relative to positive control, PD-1/LAG-3 reporter assay” value (“AUC relative to positive control” below) amounted to 215% and the “EC50 (nM) PD-1/LAG-3 reporter assay” value was found to be 19.1 nM. Besides, in assay [2], the “EC50 (read off the curve); PD-1/PD-L1 reporter assay, luciferase fold induction” value (from here on “EC50 … luciferase fold induction”) was ~0.5 µg/mL. The binding result in assay [3] is given as “binds”. Besides, the binding result in assay [4] was “binds”.

B2: PD-1xLAG-3 bispecific antibody SEQ ID NO: 5 × SEQ ID NO: 11 (bispecific antibody)
heavy (part 1 of 2) 1: not shown
heavy (part 2 of 2) 1: not shown
heavy (part 1 of 2) 2: QVQLQESGPGLVRPSETLSLTCTVSGGSISSYSWSWIRQPPGKGLEWIGYIDYSGSTNYNPSLKSRVTISVDTSKTQFSLKLSSVSAADTAVYYCAKDLLYKWNYVEGFDIWGQGTTVTVSSASTKGPSVFPLAPSSKSTSGGTAALGCLVKDYFPEPVTVSWNSGALTSGVHTFPAVLQSSGLYSLSSVVTVPSSSLGTQTYICNVNHKPSNTKVDKRV
heavy (part 2 of 2) 2: not shown
light: not shown
notes: IgG1; common light chain; also called PB13; not shown: hinge (IgG1)
As to B2, in assay [1], the “AUC relative to positive control” value came out at 218% and the “EC50 (nM) PD-1/LAG-3 reporter assay” value was found to be 10.1 nM. In addition, the “EC50 … luciferase fold induction” value in assay [2] is ~0.7 µg/mL. In addition, the binding result in assay [3] is on record as “binds”. Further, in assay [4], the binding result is recorded as “binds”.

B3: PD-1xLAG-3 bispecific antibody SEQ ID NO: 5 × SEQ ID NO: 15 (bispecific antibody)
heavy (part 1 of 2) 1: not shown
heavy (part 2 of 2) 1: not shown
heavy (part 1 of 2) 2: QVQLVQSGAEVKKPGASVKVSCKASGYTFTSYGISWVRQAPGQGLEWMGWISAYSGNTNYAQKLQGRVTMTTDTSTSTAYMELRSLRSDDTAVYYCARDGSGWDDFDYWGQGTLVTVSSASTKGPSVFPLAPSSKSTSGGTAALGCLVKDYFPEPVTVSWNSGALTSGVHTFPAVLQSSGLYSLSSVVTVPSSSLGTQTYICNVNHKPSNTKVDKRV
heavy (part 2 of 2) 2: not shown
light: not shown
notes: IgG1; common light chain; also called PB17; not shown: hinge (IgG1)
Take B3: in assay [1], the “AUC relative to positive control” value was 293% and the “EC50 (nM) PD-1/LAG-3 reporter assay” value stood at 12.9 nM. Further, in assay [5], the “EC50 … luciferase fold induction” value was ~2 µg/mL. The binding result in assay [3] is reported as “binds”. For the same molecule, the binding result in assay [4] is “binds”.

B4: PD-1xLAG-3 bispecific antibody SEQ ID NO: 1 × SEQ ID NO: 14 (bispecific antibody)
heavy (part 1 of 2) 1: not shown
heavy (part 2 of 2) 1: not shown
heavy (part 1 of 2) 2: EVQLVQSGSELKKPGASVKVSCKASGYTFTTNALNWVRQAPGQGLEWMGWINTHTGNPTYAQGFIGRFVFSLDTSVSTAYLQIRSLKAEDTAVYYCAREPNWGVYFDYWGQGTLVTVSSASTKGPSVFPLAPSSKSTSGGTAALGCLVKDYFPEPVTVSWNSGALTSGVHTFPAVLQSSGLYSLSSVVTVPSSSLGTQTYICNVNHKPSNTKVDKRV
heavy (part 2 of 2) 2: not shown
light: not shown
notes: IgG1; common light chain; also called PB4; not shown: hinge (IgG1)
B4: in assay [1], the “AUC relative to positive control” value came to 271% and the “EC50 (nM) PD-1/LAG-3 reporter assay” value turned out to be 9.96 nM. The “EC50 … luciferase fold induction” value in assay [6] is ~1 µg/mL. Also, the binding result in assay [3] is listed as “binds”. In addition, in assay [4], the binding result was “binds”.

B5: PD-1xLAG-3 bispecific antibody SEQ ID NO: 6 × SEQ ID NO: 14 (bispecific antibody)
heavy (part 1 of 2) 1: not shown
heavy (part 2 of 2) 1: not shown
heavy (part 1 of 2) 2: EVQLVQSGSELKKPGASVKVSCKASGYTFTTNALNWVRQAPGQGLEWMGWINTHTGNPTYAQGFIGRFVFSLDTSVSTAYLQIRSLKAEDTAVYYCAREPNWGVYFDYWGQGTLVTVSSASTKGPSVFPLAPSSKSTSGGTAALGCLVKDYFPEPVTVSWNSGALTSGVHTFPAVLQSSGLYSLSSVVTVPSSSLGTQTYICNVNHKPSNTKVDKRV
heavy (part 2 of 2) 2: not shown
light: not shown
notes: IgG1; common light chain; also called PB10; PD-1xLAG-3 bispecific antibody 2; not shown: hinge (IgG1)
Regarding B5, in assay [1], the “AUC relative to positive control” value amounted to 246% and the “EC50 (nM) PD-1/LAG-3 reporter assay” value is 18 nM. For the same molecule, the “EC50 … luciferase fold induction” value in assay [6] is ~1 µg/mL. Also, the binding result in assay [3] was “binds”. The binding result in assay [4] is given as “binds”.
